B1: CCND1 (parent)
chain: PEAEENKQIIRKHAQTFVALCATD
B2: ZNF649 (parent)
chain: DECEKAYFYMSCLVKHKRIHSREK

Variants of: B1
Assay: protein stability index of a GFP-peptide fusion (GPS, HEK-293T) (PSI 1-6); higher = more stable
Conditions: c terminus: a fixed tail appended
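Further: lentivirally expressed fusions sorted by FACS into six bins by GFP to DsRed ratio, PSI derived from sequencing read proportions per bin multiplied by bin number.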

Protein stability index: each site, then its substitutions
K12: D 3.66
E4: M 2.23, N 2.36, S 2.21, W 1.95, H 2.67, A 2.47, G 2.42, L 2.37, C 3.62, Q 2.39, I 2.2, K 2.04
C21: V 2.24, K 5.07, T 2.78, G 5.04, A 4.05, L 1.66, H 4.37, S 4.07, F 3.75, Y 2.96
T23: I 2.38, H 2.64, Y 2.47, N 2.94, Q 2.54

Variants of: B2
Assay: as above
Conditions: c terminus: a fixed tail appended

Protein stability index, by site and new letter:
R18: Y 2.52, M 2.53, W 2.34, L 1.73, H 2.62, V 2.36, S 2.56, K 2.79, E 2.59, Q 2.56, P 2.48, C 2.32, G 2.72, I 2.08, F 2.4, D 2.87, T 2.61, N 3.21, A 2.53
H20: K 2.6, V 2.24, W 2.4, Y 2.59, R 2.59, A 2.22, D 3.33, N 2.57, M 2.1, C 2.92, Q 2.6, I 2.09, L 2.48, E 3.6, S 2.37, G 2.55, P 3.15, F 2.88, T 2.12
I19: R 3.19, W 2.81, Q 3.42, L 2.4, Y 2.34, E 3.93, N 2.97, M 2.66, A 3.26, F 2.53, S 3.36, H 3.15, D 3.59, V 3.18, P 3.3, C 3.2, G 3.27, K 2.9, T 2.98
K24: I 2.12, L 1.75, D 3.02, R 2.42, S 3.13, G 2.31, Q 2.56, E 3.45, P 2.46, F 1.85, H 2.72, T 1.98, M 1.97, V 2.05, A 2.1, N 2.54, Y 2.05, C 1.55, W 1.92
E23: R 3.04, V 2.2, Y 2.17, T 2.48, G 2.62, M 1.8, W 2.23, C 3.15, F 2.15, N 2.38, A 3.48, I 2.42, L 2.99, K 2.7, H 2.36, S 2.23, D 2.81, Q 2.99, P 2.1
S21: D 2.61, P 2.08, V 2.65, Q 2.95, H 2.53, R 2.58, I 2.61, M 2.13, N 2.98, E 2.85, W 1.61, L 2.14, G 2.29, T 2.15, F 1.91, Y 1.87, C 3.33, A 2.48, K 2.77
K17: S 2.19, Y 2.14, V 2.19, T 2.27, R 2.39, W 2
R22: E 2.89, K 3.08, A 2.54, D 2.8, L 1.43, F 2.09, M 2.22, P 2.89, T 2.38, I 2.24, S 2.08, Y 2.16, V 2.32, N 2.82, H 2.39, G 2.19, Q 2.28, C 2.36, W 1.71

Reference: the supplement of paper PMC10567573
